For test [1], the target named is tomato pectin methylesterase PME1 (tomato) (UniProt P14280). As to the kind of experiment: SPR; tomato PME1 immobilised by amine coupling on a COOH5 chip (SensiQ Pioneer), VvPMEI1 injected at 2.3-300 nM, 25°C, 10 mM NaOAc pH 5.5, 0.1 M NaCl, 0.005% Tween-20; 1:1 interaction model. On the technique in general: SPR reads the build-up and loss of mass on a sensor chip optically.

For test [2] the target is unchanged. The experiment in a line: SPR; tomato PME1 immobilised by amine coupling on a COOH5 chip (SensiQ Pioneer), VvPMEI1 injected at 2.3-300 nM, 25°C, 10 mM HEPES pH 7.5, 0.1 M NaCl, 0.005% Tween-20; 1:1 interaction model.
Test [3] has the same target.

pKd: −log10 of the molar value.

Chain of UniProt P14280 (P14280 230-546): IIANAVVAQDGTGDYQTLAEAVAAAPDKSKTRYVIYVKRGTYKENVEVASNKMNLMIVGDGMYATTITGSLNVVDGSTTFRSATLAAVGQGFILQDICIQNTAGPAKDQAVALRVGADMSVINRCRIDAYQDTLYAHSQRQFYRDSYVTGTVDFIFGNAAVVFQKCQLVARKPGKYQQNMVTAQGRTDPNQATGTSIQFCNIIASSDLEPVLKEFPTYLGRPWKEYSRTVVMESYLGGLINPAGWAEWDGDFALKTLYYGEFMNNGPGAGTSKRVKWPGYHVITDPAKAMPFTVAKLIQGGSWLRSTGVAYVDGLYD

A word on the pKd: it is −log10 of the Kd, conventionally taken in molar units. As usually defined, the koff is the rate constant with which the complex falls apart. As for “VvPMEI1, pectin methylesterase inhibitor of Vitis vinifera (recombinant) (natural protein)”, in test [1], the pKd was 8.32 and the koff came to 0.00317 s⁻¹. In test [2], this substance showed a pKd of 7.46 and a koff of 0.026 s⁻¹. In test [3], this substance registered an inhibitory activity (%) at pH 6.5, inhibition at pH 5.5 taken as 100% of 100% and an inhibitory activity (%) at pH 7.5, inhibition at pH 5.5 taken as 100% of 84%.

(Values after article PMC4512722.)
